From patent publication US20050142106A1 (MIT, published 2005)
Positions count from the first letter of the chain named. In names and notes the source's numbering stands.

Experiments:
IL-2Rβ on YT-2C2 cells = target: T1, IL-2Rβ on YT-2C2 cells (human, UniProt P14784 27-551); assay: flow cytometry on YT-2C2 cells, on ice, anti-FLAG detection, global fit
T1 construct: whole, on cells; YT-2C2 cells express about 20,000 IL-2Rβγ, so IL-2Rγ is also present; also called p75
T1 sequence (looked up): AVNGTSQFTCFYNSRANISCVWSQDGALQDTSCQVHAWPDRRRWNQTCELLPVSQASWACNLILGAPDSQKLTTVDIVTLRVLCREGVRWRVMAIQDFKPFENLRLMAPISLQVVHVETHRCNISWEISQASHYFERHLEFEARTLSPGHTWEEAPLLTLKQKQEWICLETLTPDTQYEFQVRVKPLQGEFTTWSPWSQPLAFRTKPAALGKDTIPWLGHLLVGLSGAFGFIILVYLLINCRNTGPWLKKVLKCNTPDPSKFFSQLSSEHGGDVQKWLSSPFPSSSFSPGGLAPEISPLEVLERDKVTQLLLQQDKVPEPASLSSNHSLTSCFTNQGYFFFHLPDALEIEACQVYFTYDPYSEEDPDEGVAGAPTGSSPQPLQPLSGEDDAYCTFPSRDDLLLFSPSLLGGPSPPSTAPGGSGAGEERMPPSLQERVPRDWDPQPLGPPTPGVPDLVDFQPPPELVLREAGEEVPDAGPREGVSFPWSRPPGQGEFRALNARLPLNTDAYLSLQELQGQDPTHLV

[1] = target: T2, IL-2Rα on the surface of KIT225 or F15R-Kit cells (human, UniProt P01589 22-272); assay: flow cytometry on KIT225 cells, 37 C; the reference value is cited from the literature
T2 construct: whole, on cells; KIT225 cells also carry some IL-2Rβ and IL-2Rγ; also called IL-2 receptor α subunit; p55
T2 sequence (looked up): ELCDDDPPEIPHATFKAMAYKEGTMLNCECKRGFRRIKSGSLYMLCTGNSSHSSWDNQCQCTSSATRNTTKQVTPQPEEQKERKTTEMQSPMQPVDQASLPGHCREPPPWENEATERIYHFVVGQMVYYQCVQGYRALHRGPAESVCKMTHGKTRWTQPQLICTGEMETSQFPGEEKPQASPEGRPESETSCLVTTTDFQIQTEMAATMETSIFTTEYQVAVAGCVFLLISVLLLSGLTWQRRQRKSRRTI

[2] = target: T3, IL-15Rα on F15R-Kit cells (UniProt Q13261 31-267); assay: flow cytometry on F15R-Kit cells
T3 construct: whole, on cells

[3] = target: T2, IL-2Rα on the surface of KIT225 or …; assay: flow cytometry on KIT225 cells, 37 C, anti-FLAG detection
Text: Cells were washed with ice-cold PBS, pH 7.4, containing 0.1% bovine serum albumin (BSA) and labeled with a biotinylated antibody against the FLAG epitope followed by streptavidin-phycoerythrin on ice. We washed the cells again and determined mean single cell fluorescence using an EPICS-XL flow cytometer.

[4] = target: T2, IL-2Rα on the surface of KIT225 or …; assay: flow cytometry on F15R-Kit cells, 30 min at 37 C, pH 7.4
Description: (pH 7.4). Cell surface bound protein was measured using flow cytometry. Data from two different experiments (FIG. 12) were used to estimate Kd values.

T3 sequence (Q13261 31-267, stated change not applied): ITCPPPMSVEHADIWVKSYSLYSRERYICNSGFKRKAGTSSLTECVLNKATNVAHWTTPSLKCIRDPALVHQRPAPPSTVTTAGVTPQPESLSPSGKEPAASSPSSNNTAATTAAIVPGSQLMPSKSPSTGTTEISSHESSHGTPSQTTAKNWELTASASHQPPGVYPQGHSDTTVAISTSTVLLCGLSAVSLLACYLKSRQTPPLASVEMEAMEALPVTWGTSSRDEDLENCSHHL

B1: IL-2 mutant M6 (V69A, Q74P, I128T) (ligand, not shown: small tags and cut ends)
chain: APTSSSTKKTQLQLEHLLLDLQMILNGINNYKNPKLTRMLTFKFYMPKKATELKHLQCLEEELKPLEEALNLAPSKNFHLRPRDLISNINVIVLELKGSETTFMCEYADETATIVEFLNRWITFSQSTISTLT
notes: Soluble form secreted from yeast
Kd (IL-2Rβ on YT-2C2 cells): 210 nM
fold improvement in binding affinity relative to a wild-type Kd value of 28 nM (literature) [1]: ≥ 30 fold
binding result [2]: no binding
Kd [3]: ~1 nM
Kd [4]: 1.22 nM

B2: IL-2 mutant 2-4 (ligand, not shown: small tags and cut ends)
chain: B1 chain with N29S, Y31H, K35R, T37A, K48E, N71R, N88D, I89V, T128I
notes: also called N31618-14_; N31610-14_
binding result [2]: no binding
Kd [4]: 0.18 nM

B3: IL-2 mutant WC9 (ligand, not shown: small tags and cut ends)
chain: B1 chain with S4P, T10A, Q11R, N88D, T128I, T133A
notes: also called N31610-18_
binding result [2]: no binding
Kd [4]: 1.58 nM

B4: IL-2 mutant WE3 (ligand, not shown: small tags and cut ends)
chain: B1 chain with N30S
notes: also called N31610-25_
binding result [2]: no binding
Kd [4]: 0.778 nM

B5: IL-2 mutant 1b-8 (ligand, not shown: small tags and cut ends)
chain: B1 chain with K8R, Q13R, N26D, N30T, K35R, T37R, I92T, T128I
notes: also called N31618-08_
binding result [2]: no binding
Kd [4]: 0.409 nM

B6: IL-2 mutant 1a-1 (ligand, not shown: small tags and cut ends)
chain: B1 chain with N30S, E68D, N71A, S75P, K76R, N90H, T128I
notes: also called N31610-01_
binding result [2]: no binding
Kd [4]: 0.254 nM
